Test results taken from publication PMC5493634, “Intermolecular steric inhibition of Ephexin4 is relieved by Elmo1” (Scientific Reports, 2017).

Target: the molecule itself
Test: cross-linking; 293T cells transfected with Ephexin4-FLAG, cells incubated with or without 0.25 mM BMH (PBS pH 7.3, 5 mM EDTA) at room temperature for 1 h, then lysed; anti-FLAG immunoblot (Fig. 2d)

B1: Ephexin4 (full-length, wild type) (natural protein, UniProt Q5VV41 1-709, looked up)
chain: MAQRHSDSSLEEKLLGHRFHSELRLDAGGNPASGLPMVRGSPRVRDDAAFQPQVPAPPQPRPPGHEEPWPIVLSTESPAALKLGTQQLIPKSLAVASKAKTPARHQSFGAAVLSREAARRDPKLLPAPSFSLDDMDVDKDPGGMLRRNLRNQSYRAAMKGLGKPGGQGDAIQLSPKLQALAEEPSQPHTRSPAKNKKTLGRKRGHKGSFKDDPQLYQEIQERGLNTSQESDDDILDESSSPEGTQKVDATIVVKSYRPAQVTWSQLPEVVELGILDQLSTEERKRQEAMFEILTSEFSYQHSLSILVEEFLQSKELRATVTQMEHHHLFSNILDVLGASQRFFEDLEQRHKAQVLVEDISDILEEHAEKHFHPYIAYCSNEVYQQRTLQKLISSNAAFREALREIERRPACGGLPMLSFLILPMQRVTRLPLLMDTLCLKTQGHSERYKAASRALKAISKLVRQCNEGAHRMERMEQMYTLHTQLDFSKVKSLPLISASRWLLKRGELFLVEETGLFRKIASRPTCYLFLFNDVLVVTKKKSEESYMVQDYAQMNHIQVEKIEPSELPLPGGGNRSSSVPHPFQVTLLRNSEGRQEQLLLSSDSASDRARWIVALTHSERQWQGLSSKGDLPQVEITKAFFAKQADEVTLQQADVVLVLQQEDGWLYGERLRDGETGWFPEDFARFITSRVAVEGNVRRMERLRVETDV
notes: Ephexin4, guanine nucleotide-exchange factor for RhoG; full-length; also called Epx4; Ephexin4-FLAG
stoichiometry N: 3
